According to IntAct's records for PubMed 29039417:

B1: BBSome complex member BBS4 (Homo sapiens), Q96RK4 (parent)
chain: MAEERVATRTQFPVSTESQKPRQKKAPEFPILEKQNWLIHLHYIRKDYEACKAVIKEQLQETQGLCEYAIYVQALIFRLEGNIQESLELFQTCAVLSPQSADNLKQVARSLFLLGKHKAAIEVYNEAAKLNQKDWEISHNLGVCYIYLKQFNKAQDQLHNALNLNRHDLTYIMLGKIHLLEGDLDKAIEVYKKAVEFSPENTELLTTLGLLYLQLGIYQKAFEHLGNALTYDPTNYKAILAAGSMMQTHGDFDVALTKYRVVACAVPESPPLWNNIGMCFFGKKKYVAAISCLKRANYLAPFDWKILYNLGLVHLTMQQYASAFHFLSAAINFQPKMGELYMLLAVALTNLEDIENAKRAYAEAVHLDKCNPLVNLNYAVLLYNQGEKKNALAQYQEMEKKVSLLKDNSSLEFDSEMVEMAQKLGAALQVGEALVWTKPVKDPKSKHQTTSTSKPASFQQPLGSNQALGQAMSSAAAYRTLPSGAGGTSQFTKPPSLPLEPEPAVESSPTETSEQIREK
partner: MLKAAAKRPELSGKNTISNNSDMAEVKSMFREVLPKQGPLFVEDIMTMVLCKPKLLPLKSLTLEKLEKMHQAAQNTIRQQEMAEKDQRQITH

Variants of: B1
Settings: with bbip1_human BBIP1, A8MTZ0

Effect of a mutation on the interaction, with no effect:
MAEERVATRTQFPVSTESQKPRQKKAPEFPILEKQNWLIHLHYIRKDYEACKAVIKEQLQETQGLCEYAIYVQALIFRLEGNIQESLELFQTCAVLSPQSADNLKQVARSLFLLGKHKAAIEVYNEAAKLNQKDWEISHNLGVCYIYLKQFNKAQDQLHNALNLNRHDLTYIMLGKIHLLEGDLDKAIEVYKKAVEFSPENTELLTTLGLLYLQLGIYQKAFEHLGNALTYDPTNYKAILAAGSMMQTHGDFDVALTKYRVVACAVPESPPLWNNIGMCFFGKKKYVAAISCLKRANYLAPFDWKILYNLGLVHLTMQQYASAFHFLSAAINFQPKMGELYMLLAVALTNLEDIENAKRAYAEAVHLDKCNPLVNLNYAVLLYNQGEKKNALAQYQEMEKKVSLLKDNSSLEFDSEMVEMAQKLGAALQVGEALVWTKPVKKPKSKHQTTSTSKPASFQQPLGSNQALGQAMSSAAAYRTLPSGAGGTSQFTKPPSLPLEPEPAVESSPTETSEQIREK [D442K]
MAEERVATRTQFPVSTESQKPRQKKAPEFPILEKQNWLIHLHYIRKDYEACKAVIKEQLQETQGLCEYAIYVQALIFRLEGNIQESLELFQTCAVLSPQSADNLKQVARSLFLLGKHKAAIEVYNEAAKLNQKDWEISHNLGVCYIYLKQFNKAQDQLHNALNLNRHDLTYIMLGKIHLLEGDLDKAIEVYKKAVEFSPENTELLTTLGLLYLQLGIYQKAFEHLGNALTYDPTNYKAILAAGSMMQTHGDFDVALTKYRVVACAVPESPPLWNNIGMCFFGKKKYVAAISCLKRANYLAPFDWKILYNLGLVHLTMQQYASAFHFLSAAINFQPKMGELYMLLAVALTNLEDIENAKRAYAEAVHLDKCNPLVNLNYAVLLYNQGEKKNALAQYQEMEKKVSLLKDNSSLEFDSEMVEMAQKLGAALQVGEALVWTKPVKDAKSKHQTTSTSKPASFQQPLGSNQALGQAMSSAAAYRTLPSGAGGTSQFTKPPSLPLEPEPAVESSPTETSEQIREK [P443A]
MAEERVATRTQFPVSTESQKPRQKKAPEFPILEKQNWLIHLHYIRKDYEACKAVIKEQLQETQGLCEYAIYVQALIFRLEGNIQESLELFQTCAVLSPQSADNLKQVARSLFLLGKHKAAIEVYNEAAKLNQKDWEISHNLGVCYIYLKQFNKAQDQLHNALNLNRHDLTYIMLGKIHLLEGDLDKAIEVYKKAVEFSPENTELLTTLGLLYLQLGIYQKAFEHLGNALTYDPTNYKAILAAGSMMQTHGDFDVALTKYRVVACAVPESPPLWNNIGMCFFGKKKYVAAISCLKRANYLAPFDWKILYNLGLVHLTMQQYASAFHFLSAAINFQPKMGELYMLLAVALTNLEDIENAKRAYAEAVHLDKCNPLVNLNYAVLLYNQGEKKNALAQYQEMEKKVSLLKDNSSLEFDSEMVEMAQKLGAALQVGEALVWTKPVKDKKSKHQTTSTSKPASFQQPLGSNQALGQAMSSAAAYRTLPSGAGGTSQFTKPPSLPLEPEPAVESSPTETSEQIREK [P443K]
MAEERVATRTQFPVSTESQKPRQKKAPEFPILEKQNWLIHLHYIRKDYEACKAVIKEQLQETQGLCEYAIYVQALIFRLEGNIQESLELFQTCAVLSPQSADNLKQVARSLFLLGKHKAAIEVYNEAAKLNQKDWEISHNLGVCYIYLKQFNKAQDQLHNALNLNRHDLTYIMLGKIHLLEGDLDKAIEVYKKAVEFSPENTELLTTLGLLYLQLGIYQKAFEHLGNALTYDPTNYKAILAAGSMMQTHGDFDVALTKYRVVACAVPESPPLWNNIGMCFFGKKKYVAAISCLKRANYLAPFDWKILYNLGLVHLTMQQYASAFHFLSAAINFQPKMGELYMLLAVALTNLEDIENAKRAYAEAVHLDKCNPLVNLNYAVLLYNQGEKKNALAQYQEMEKKVSLLKDNSSLEFDSEMVEMAQKLGAALQVGEALVWTKPVKDEKSKHQTTSTSKPASFQQPLGSNQALGQAMSSAAAYRTLPSGAGGTSQFTKPPSLPLEPEPAVESSPTETSEQIREK [P443E]
MAEERVATRTQFPVSTESQKPRQKKAPEFPILEKQNWLIHLHYIRKDYEACKAVIKEQLQETQGLCEYAIYVQALIFRLEGNIQESLELFQTCAVLSPQSADNLKQVARSLFLLGKHKAAIEVYNEAAKLNQKDWEISHNLGVCYIYLKQFNKAQDQLHNALNLNRHDLTYIMLGKIHLLEGDLDKAIEVYKKAVEFSPENTELLTTLGLLYLQLGIYQKAFEHLGNALTYDPTNYKAILAAGSMMQTHGDFDVALTKYRVVACAVPESPPLWNNIGMCFFGKKKYVAAISCLKRANYLAPFDWKILYNLGLVHLTMQQYASAFHFLSAAINFQPKMGELYMLLAVALTNLEDIENAKRAYAEAVHLDKCNPLVNLNYAVLLYNQGEKKNALAQYQEMEKKVSLLKDNSSLEFDSEMVEMAQKLGAALQVGEALVWTKPVKDPKSAHQTTSTSKPASFQQPLGSNQALGQAMSSAAAYRTLPSGAGGTSQFTKPPSLPLEPEPAVESSPTETSEQIREK [K446A]
MAEERVATRTQFPVSTESQKPRQKKAPEFPILEKQNWLIHLHYIRKDYEACKAVIKEQLQETQGLCEYAIYVQALIFRLEGNIQESLELFQTCAVLSPQSADNLKQVARSLFLLGKHKAAIEVYNEAAKLNQKDWEISHNLGVCYIYLKQFNKAQDQLHNALNLNRHDLTYIMLGKIHLLEGDLDKAIEVYKKAVEFSPENTELLTTLGLLYLQLGIYQKAFEHLGNALTYDPTNYKAILAAGSMMQTHGDFDVALTKYRVVACAVPESPPLWNNIGMCFFGKKKYVAAISCLKRANYLAPFDWKILYNLGLVHLTMQQYASAFHFLSAAINFQPKMGELYMLLAVALTNLEDIENAKRAYAEAVHLDKCNPLVNLNYAVLLYNQGEKKNALAQYQEMEKKVSLLKDNSSLEFDSEMVEMAQKLGAALQVGEALVWTKPVKDPKSEHQTTSTSKPASFQQPLGSNQALGQAMSSAAAYRTLPSGAGGTSQFTKPPSLPLEPEPAVESSPTETSEQIREK [K446E]
MAEERVATRTQFPVSTESQKPRQKKAPEFPILEKQNWLIHLHYIRKDYEACKAVIKEQLQETQGLCEYAIYVQALIFRLEGNIQESLELFQTCAVLSPQSADNLKQVARSLFLLGKHKAAIEVYNEAAKLNQKDWEISHNLGVCYIYLKQFNKAQDQLHNALNLNRHDLTYIMLGKIHLLEGDLDKAIEVYKKAVEFSPENTELLTTLGLLYLQLGIYQKAFEHLGNALTYDPTNYKAILAAGSMMQTHGDFDVALTKYRVVACAVPESPPLWNNIGMCFFGKKKYVAAISCLKRANYLAPFDWKILYNLGLVHLTMQQYASAFHFLSAAINFQPKMGELYMLLAVALTNLEDIENAKRAYAEAVHLDKCNPLVNLNYAVLLYNQGEKKNALAQYQEMEKKVSLLKDNSSLEFDSEMVEMAQKLGAALQVGEALVWTKPVKDPKSKAQTTSTSKPASFQQPLGSNQALGQAMSSAAAYRTLPSGAGGTSQFTKPPSLPLEPEPAVESSPTETSEQIREK [H447A]
MAEERVATRTQFPVSTESQKPRQKKAPEFPILEKQNWLIHLHYIRKDYEACKAVIKEQLQETQGLCEYAIYVQALIFRLEGNIQESLELFQTCAVLSPQSADNLKQVARSLFLLGKHKAAIEVYNEAAKLNQKDWEISHNLGVCYIYLKQFNKAQDQLHNALNLNRHDLTYIMLGKIHLLEGDLDKAIEVYKKAVEFSPENTELLTTLGLLYLQLGIYQKAFEHLGNALTYDPTNYKAILAAGSMMQTHGDFDVALTKYRVVACAVPESPPLWNNIGMCFFGKKKYVAAISCLKRANYLAPFDWKILYNLGLVHLTMQQYASAFHFLSAAINFQPKMGELYMLLAVALTNLEDIENAKRAYAEAVHLDKCNPLVNLNYAVLLYNQGEKKNALAQYQEMEKKVSLLKDNSSLEFDSEMVEMAQKLGAALQVGEALVWTKPVKDPKKKHQTTSTSKPASFQQPLGSNQALGQAMSSAAAYRTLPSGAGGTSQFTKPPSLPLEPEPAVESSPTETSEQIREK [S445K]
MAEERVATRTQFPVSTESQKPRQKKAPEFPILEKQNWLIHLHYIRKDYEACKAVIKEQLQETQGLCEYAIYVQALIFRLEGNIQESLELFQTCAVLSPQSADNLKQVARSLFLLGKHKAAIEVYNEAAKLNQKDWEISHNLGVCYIYLKQFNKAQDQLHNALNLNRHDLTYIMLGKIHLLEGDLDKAIEVYKKAVEFSPENTELLTTLGLLYLQLGIYQKAFEHLGNALTYDPTNYKAILAAGSMMQTHGDFDVALTKYRVVACAVPESPPLWNNIGMCFFGKKKYVAAISCLKRANYLAPFDWKILYNLGLVHLTMQQYASAFHFLSAAINFQPKMGELYMLLAVALTNLEDIENAKRAYAEAVHLDKCNPLVNLNYAVLLYNQGEKKNALAQYQEMEKKVSLLKDNSSLEFDSEMVEMAQKLGAALQVGEALVWTKPVKDPKAKHQTTSTSKPASFQQPLGSNQALGQAMSSAAAYRTLPSGAGGTSQFTKPPSLPLEPEPAVESSPTETSEQIREK [S445A]
MAEERVATRTQFPVSTESQKPRQKKAPEFPILEKQNWLIHLHYIRKDYEACKAVIKEQLQETQGLCEYAIYVQALIFRLEGNIQESLELFQTCAVLSPQSADNLKQVARSLFLLGKHKAAIEVYNEAAKLNQKDWEISHNLGVCYIYLKQFNKAQDQLHNALNLNRHDLTYIMLGKIHLLEGDLDKAIEVYKKAVEFSPENTELLTTLGLLYLQLGIYQKAFEHLGNALTYDPTNYKAILAAGSMMQTHGDFDVALTKYRVVACAVPESPPLWNNIGMCFFGKKKYVAAISCLKRANYLAPFDWKILYNLGLVHLTMQQYASAFHFLSAAINFQPKMGELYMLLAVALTNLEDIENAKRAYAEAVHLDKCNPLVNLNYAVLLYNQGEKKNALAQYQEMEKKVSLLKDNSSLEFDSEMVEMAQKLGAALQVGEALVWTKPVKDPKEKHQTTSTSKPASFQQPLGSNQALGQAMSSAAAYRTLPSGAGGTSQFTKPPSLPLEPEPAVESSPTETSEQIREK [S445E]
MAEERVATRTQFPVSTESQKPRQKKAPEFPILEKQNWLIHLHYIRKDYEACKAVIKEQLQETQGLCEYAIYVQALIFRLEGNIQESLELFQTCAVLSPQSADNLKQVARSLFLLGKHKAAIEVYNEAAKLNQKDWEISHNLGVCYIYLKQFNKAQDQLHNALNLNRHDLTYIMLGKIHLLEGDLDKAIEVYKKAVEFSPENTELLTTLGLLYLQLGIYQKAFEHLGNALTYDPTNYKAILAAGSMMQTHGDFDVALTKYRVVACAVPESPPLWNNIGMCFFGKKKYVAAISCLKRANYLAPFDWKILYNLGLVHLTMQQYASAFHFLSAAINFQPKMGELYMLLAVALTNLEDIENAKRAYAEAVHLDKCNPLVNLNYAVLLYNQGEKKNALAQYQEMEKKVSLLKDNSSLEFDSEMVEMAQKLGAALQVGEALVWTKPVKDPASKHQTTSTSKPASFQQPLGSNQALGQAMSSAAAYRTLPSGAGGTSQFTKPPSLPLEPEPAVESSPTETSEQIREK [K444A]
MAEERVATRTQFPVSTESQKPRQKKAPEFPILEKQNWLIHLHYIRKDYEACKAVIKEQLQETQGLCEYAIYVQALIFRLEGNIQESLELFQTCAVLSPQSADNLKQVARSLFLLGKHKAAIEVYNEAAKLNQKDWEISHNLGVCYIYLKQFNKAQDQLHNALNLNRHDLTYIMLGKIHLLEGDLDKAIEVYKKAVEFSPENTELLTTLGLLYLQLGIYQKAFEHLGNALTYDPTNYKAILAAGSMMQTHGDFDVALTKYRVVACAVPESPPLWNNIGMCFFGKKKYVAAISCLKRANYLAPFDWKILYNLGLVHLTMQQYASAFHFLSAAINFQPKMGELYMLLAVALTNLEDIENAKRAYAEAVHLDKCNPLVNLNYAVLLYNQGEKKNALAQYQEMEKKVSLLKDNSSLEFDSEMVEMAQKLGAALQVGEALVWTKPVKDPESKHQTTSTSKPASFQQPLGSNQALGQAMSSAAAYRTLPSGAGGTSQFTKPPSLPLEPEPAVESSPTETSEQIREK [K444E]
